Values of other authors, collected in paper PMC4097889.

Assays:
RXRα LBD (Homo sapiens) [1] = target: RXRα LBD (Homo sapiens) (UniProt P19793); assay: ITC
RXRα LBD (Homo sapiens) [2] = target: RXRα LBD (Homo sapiens) (UniProt P19793); assay: circular dichroism

Sequence of UniProt P19793 (P19793 227-458): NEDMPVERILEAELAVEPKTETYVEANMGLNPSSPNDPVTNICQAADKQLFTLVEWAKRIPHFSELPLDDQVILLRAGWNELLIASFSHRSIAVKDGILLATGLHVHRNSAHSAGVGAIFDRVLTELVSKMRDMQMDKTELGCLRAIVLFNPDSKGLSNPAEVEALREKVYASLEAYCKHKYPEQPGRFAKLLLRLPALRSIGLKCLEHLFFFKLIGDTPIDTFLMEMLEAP

Kd (RXRα LBD (Homo sapiens) [1]): 600 nM
Kd (RXRα LBD (Homo sapiens) [2]): 900 nM
Substance: GRIP-1 peptide (from UniProt Q15596)
